The term Kd denotes a measure of binding affinity in units of concentration. Read a high Kd as weaker binding.

Data on four proteins can be found in PMC3099344 (Structure (London, England : 1993), 2011).

The series “AUC” deals with the molecule itself. The series is described as follows: AUC.
The series “crystal structure” deals with the molecule itself. The series is described as follows: crystal structure.

B1: D. melanogaster Boca conserved core (dmBocaCC) (domain or fragment, Drosophila melanogaster)
chain: GSHMKKDIRDYSEADLERLLDQWEEDEEPLEDDELPEHLRPQPKLDLSNLDSKSPEDLLKVSKKGRTLMTFVSVTGNPTREESDTITKLWQTSLWNNHIQAERYMVDDNRAIFLFKDGTQAWDAKDFLIEQERCKGVTIENKEYPG
B1: binding in “AUC” was characterised by a dissociation constant (Kd) of 155 ± 4.6 µM.

B2: M. musculus Mesd structured domain (mmMesdSD) (domain or fragment, Mus musculus)
chain: GSHMTKKGKTLMMFVTVSGNPTEKETEEITSLWQGSLFNANYDVQRFIVGSDRAIFMLRDGSYAWEIKDFLVSQDRCAEVTLEGQMYPG
For B2, in “AUC”, binding was characterised by a dissociation constant (Kd) of 276 ± 13.8 µM.

B3: D. melanogaster Boca structured domain (dmBocaSD) (domain or fragment, Drosophila melanogaster)
chain: GSQKHMSKKGRTLMTFVSVTGNPTREESDTITKLWQTSLWNNHIQAERYMVDDNRAIFLFKDGTQAWDAKDFLIEQERCKGVTIENKEYPG
B3: the dissociation constant (Kd) in the series “AUC” worked out at 77 ± 3.1 µM.

B4: Selenomethionyl D. melanogaster Boca structured domain (SeMet dmBocaSD) (domain or fragment, Drosophila melanogaster)
chain: B3 chain
modifications: selenomethionyl (SeMet) protein
Turning to B4, the binding result in the series “crystal structure” is given as “binds”.
